The test addresses HIV-1 capsid of the wild type HIV-1GFP vector (HIV-1).

The substance “engineered human TRIM5alpha fused with CypA at position S322 (T5Cyp) (from UniProt Q9C035 1-322)” gave a restriction of HIV-1GFP infection (GFP+ cells by FACS 48 h after infection) in Jurkat T5Cyp cells compared to H126Q cells of 10 fold.

The values above are taken from article PMC4842275.
